How the values were obtained:
[1] = target: T1, mouse His6-GITR (mouse, UniProt O35714 20-153); assay: ELISA, scFv periplasmic extract on coated His6-GITR
T1 construct: His6-tagged recombinant protein; also called mGITR-His; mouse GITR-His
T1 sequence: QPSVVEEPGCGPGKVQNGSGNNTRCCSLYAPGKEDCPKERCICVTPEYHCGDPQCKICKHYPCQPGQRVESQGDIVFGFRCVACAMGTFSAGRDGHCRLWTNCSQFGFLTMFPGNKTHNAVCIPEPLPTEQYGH

[2] = target: T2, human His6-GITR (human, UniProt Q9Y5U5 26-162); assay: as above
T2 construct: His6-tagged recombinant protein; also called hGITR-His; human GITR-His
T2 sequence: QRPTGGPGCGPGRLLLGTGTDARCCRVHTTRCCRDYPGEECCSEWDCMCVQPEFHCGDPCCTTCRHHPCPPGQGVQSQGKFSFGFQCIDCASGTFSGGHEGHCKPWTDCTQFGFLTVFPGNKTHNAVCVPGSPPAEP

[3] = target: T3, cynomolgus monkey His6-GITR (cynomolgus monkey); assay: as above
T3 construct: His6-tagged recombinant protein; also called cGITR-His; cyno GITR-His
T3 chain: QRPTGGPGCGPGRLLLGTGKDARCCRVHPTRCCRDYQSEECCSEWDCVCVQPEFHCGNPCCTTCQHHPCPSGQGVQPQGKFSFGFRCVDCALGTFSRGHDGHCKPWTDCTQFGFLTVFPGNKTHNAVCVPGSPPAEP

[4] = target: T2, human His6-GITR; assay: CARTERRA LSA, scFv periplasmic extract
[5] = target: T4, GITR on GITR/NFkB-luciferase reporter Jurkat cells (UniProt Q9Y5U5 26-241, limits assumed); assay: cell-based or functional assay
T4 sequence (looked up): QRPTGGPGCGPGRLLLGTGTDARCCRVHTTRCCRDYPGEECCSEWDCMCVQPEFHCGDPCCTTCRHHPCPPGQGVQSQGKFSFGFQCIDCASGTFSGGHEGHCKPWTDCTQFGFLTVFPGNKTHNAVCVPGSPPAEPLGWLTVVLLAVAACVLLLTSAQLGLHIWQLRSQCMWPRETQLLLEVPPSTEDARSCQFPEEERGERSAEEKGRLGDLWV

B1: GITR-Mab-21 scFv (scFv, V domains shown)
VH: EVQLLESGGGLVQPGGSLRLSCAASGFTFSNHYMSWVRQAPGKGLEWVAVIALDGSYRYYADSVKGRFTISRDNSKNTLYLQMNSLRAEDTAVYYCARVGPGGMDVRGQGTTVTVSS
VL: DIQMTQSPSSLSASVGDRVTITCQASQDISNYLNWYQQKPGKAPKLLIYAASSLQSGVPSRFSGSGSGTDFTLTISSLQPEDFATYYCQQSYNSPRVYTFGQGTKVEIK
notes: scFv in periplasmic extract, V5 tag
- mGITR-His/BKG [1]: 1.2 fold over background
- hGITR-His/BKG [2]: 13.5 fold over background
- cGITR-His/BKG [3]: 21.2 fold over background
- Kd [4]: 2.9 nM

B2: GITR-Mab-12 scFv (scFv, V domains shown)
VH: QVQLVQSGAEVKKPGASVKVSCKASGYTFTSYAINWVRQAPGQGLEWMGILSPSGGGTSYAPKFQGRVTMTRDTSTSTVYMELSSLRSEDTAVYYCARGPWYFDLWGRGTLVTVSS
VL: DIQMTQSPSSLSASVGDRVTITCRASQGISNSLAWYQQKPGKAPKLLIYAASSLQSGVPSRFSGSGSGTDFTLTISSLQPEDFATYYCQQSYSTPFTFGPGTKVDIK
notes: as for B1
- mGITR-His/BKG [1]: 1 fold over background
- hGITR-His/BKG [2]: 37.8 fold over background
- cGITR-His/BKG [3]: 16.9 fold over background
- Kd [4]: 7.5 nM

B3: GITR-Mab-24 scFv (scFv, V domains shown)
VH: QVQLVQSGAEVKKPGASVKVSCKASGGTFNNYAINWVRQAPGQGLEWMGTINPRDGDTTYAQKFQGRVTMTRDTSTSTVYMELSSLRSEDTAVYYCARVGYYGSGSYYSYYGMDVWGQGTTVTVSS
VL: DIQMTQSPSSLSASVGDRVTITCRASQNITNWLAWYQQKPGKAPKLLIYAASSLQSGVPSRFSGSGSGTDFTLTISSLQPEDFATYYCQQAYSFPWTFGQGTKVEIK
notes: as for B1
- mGITR-His/BKG [1]: 1.7 fold over background
- hGITR-His/BKG [2]: 19 fold over background
- cGITR-His/BKG [3]: 5.7 fold over background
- Kd [4]: 38.9 nM

B4: GITR-Mab-18 scFv (scFv, V domains shown)
VH: EVQLLESGGGLVKPGGSLRLSCAASGFTFSSYWMSWVRQAPGKGLEWVSGISWNGGTVGYADSVKGRFTISRDDSKNTLYLQMNSLKTEDTAVYYCAKLGIAVKSHWYFDLWGRGTLVTVSS
VL: DIQMTQSPSSLSASVGDRVTITCRASESISTWLAWYQQKPGKAPKLLIYAASSLQSGVPSRFSGSGSGTDFTLTISSLQPEDFATYYCQQSYTLPLTFGGGTKLEIK
notes: as for B1
- mGITR-His/BKG [1]: 1 fold over background
- hGITR-His/BKG [2]: 17.9 fold over background
- cGITR-His/BKG [3]: 17.7 fold over background
- Kd [4]: 1 nM

B5: GITR-Mab-19 scFv (scFv, V domains shown)
VH: QVQLVQSGAEVKKPGASVKVSCKASGYTFTSYDINWVRQAPGQGLEWVGIINPSGGSTSYAQKFQGRVTMTRDTSTSTVYMELSSLRSEDTAVYYCARASSGGYYYYYGMDVWGQGTTVTVSS
VL: DIQMTQSPSSLSASVGDRVTITCRASQDIVNWLAWYQQKPGKAPKLLIYAASSLQSGVPSRFSGSGSGTDFTLTISSLQPEDFATYYCQQYYSYPLTFGQGTRLEIK
notes: as for B1
- mGITR-His/BKG [1]: 1.3 fold over background
- hGITR-His/BKG [2]: 10 fold over background
- cGITR-His/BKG [3]: 24.6 fold over background
- Kd [4]: 10.8 nM

B6: GITR-Mab-16 scFv (scFv, V domains shown)
VH: QVQLVQSGAEVKKPGASVKVSCKASGGTLSSYAISWVRQAPGQGLEWMGWIDPNSGGTNYAQKFQGRVTMTRDTSTSTVYMELSSLRSEDTAVYYCARQGLLWFGESGSIYYYYGMDVWGQGTTVTVSS
VL: DIQMTQSPSSLSASVGDRVTITCRASRSISNYLNWYQQKPGKAPKLLIYGASSLQSGVPSRFSGSGSGTDFTLTISSLQPEDFATYYCQQSYSTLVTFGQGTKVEIK
notes: as for B1
- mGITR-His/BKG [1]: 0.8 fold over background
- hGITR-His/BKG [2]: 24.1 fold over background
- cGITR-His/BKG [3]: 21.6 fold over background
- Kd [4]: 0.8 nM

B7: GITR-Mab-22 scFv (scFv, V domains shown)
VH: QVQLVQSGAEVKKPGASVKVSCKASGGRFSTYALSWVRQAPGQGLEWMGIINPTDGSTTYAQKFQGRVTMTRDTSTSTVYMELSSLRSEDTAVYYCARDVYSSSWYSDYWGQGTLVTVSS
VL: DIQMTQSPSSLSASVGDRVTITCRASQSISNWLAWYQQKPGKAPKLLIYAASTLQSGVPSRFSGSGSGTDFTLTISSLQPEDFATYYCQQSYSVPFTFGPGTKVDIK
notes: as for B1
- mGITR-His/BKG [1]: 1.2 fold over background
- hGITR-His/BKG [2]: 25.7 fold over background
- cGITR-His/BKG [3]: 23.3 fold over background
- Kd [4]: 2.3 nM

B8: GITR-Mab-15 scFv (scFv, V domains shown)
VH: QVQLVQSGAEVKKPGSSVKVSCKASGFTFTTSAVQWVRQAPGQGLEWMGGIIPIFGTANYAQKFQGRVTITADESTSTAYMELSSLRSEDTAVYYCAKGSGYEFPGGSEYFQHWGQGTLVTVSS
VL: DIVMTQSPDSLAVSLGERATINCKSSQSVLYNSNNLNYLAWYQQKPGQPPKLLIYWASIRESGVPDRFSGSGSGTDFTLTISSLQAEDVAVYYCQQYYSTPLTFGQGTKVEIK
notes: as for B1
- mGITR-His/BKG [1]: 1.2 fold over background
- hGITR-His/BKG [2]: 11.4 fold over background
- cGITR-His/BKG [3]: 12.3 fold over background
- Kd [4]: 52.1 nM

B9: GITR-Mab-10 scFv (scFv, V domains shown)
VH: QVQLVQSGAEVKKPGASVKVSCKASGYTFTSNYMHWVRQAPGQGLEWMGWMNPNSGNTAYAQKFQGRVTMTRDTSTSTVYMELSSLRSEDTAVYYCARGRGGQLLFDYWGQGTLVTVSS
VL: DIQMTQSPSSLSASVGDRVTITCRASQGISSWLAWYQQKPGKAPKLLIYAASTLQSGVPSRFSGSGSGTDFTLTISSLQPEDFATYYCQQYNSYSTFGQGTKVEIK
notes: as for B1
- mGITR-His/BKG [1]: 1.1 fold over background
- hGITR-His/BKG [2]: 34.2 fold over background
- cGITR-His/BKG [3]: 29.4 fold over background
- Kd [4]: 5.3 nM

B10: GITR-Mab-2 scFv (scFv, V domains shown)
VH: QVQLVQSGAEVKKPGSSVKVSCKASGYRFTGYHLHWVRQAPGQGLEWMGGIIPIFGTANYAQKFQGRVTITADKSTSTAYMELSSLRSEDTAVYYCAYGVPPDPWGQGTLVTVSS
VL: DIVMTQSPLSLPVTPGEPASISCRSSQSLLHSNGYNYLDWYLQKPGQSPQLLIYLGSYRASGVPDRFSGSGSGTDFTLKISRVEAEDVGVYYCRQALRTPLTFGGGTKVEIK
notes: as for B1
- mGITR-His/BKG [1]: 1.1 fold over background
- hGITR-His/BKG [2]: 20.1 fold over background
- cGITR-His/BKG [3]: 25.2 fold over background
- Kd [4]: 16.3 nM

B11: GITR-Mab-20 scFv (scFv, V domains shown)
VH: QVQLVQSGAEVKKPGASVKVSCKASGGTFSNYAISWVRQAPGQGLEWMGVINPRGGSTTYAQKFQGRVTMTRDTSTSTVYMELSSLRSEDTAVYYCARDYSIPYYGMDVWGQGTTVTVSS
VL: DIQMTQSPSSLSASVGDRVTITCRASQSISTYLNWYQQKPGKAPKLLIYDASNLETGVPSRFSGSGSGTDFTLTISSLQPEDFATYYCQQSYSTPLTFGGGTKVEIK
notes: as for B1
- mGITR-His/BKG [1]: 1.1 fold over background
- hGITR-His/BKG [2]: 24.7 fold over background
- cGITR-His/BKG [3]: 15.3 fold over background
- Kd [4]: 7.8 nM

B12: GITR-Mab-13 scFv (scFv, V domains shown)
VH: QVQLVQSGAEVKKPGSSVKVSCKASGGTFSSYAISWVRQAPGQGLEWMGGIVPMLGSPHYAQKFQGRVTITADESTSTAYMELSSLRSEDTAVYYCARGSWLVADFQHWGQGTLVTVSS
VL: not shown
notes: as for B1
- mGITR-His/BKG [1]: 1.1 fold over background
- hGITR-His/BKG [2]: 25.4 fold over background
- cGITR-His/BKG [3]: 9.4 fold over background
- Kd [4]: 2.6 nM

B13: GITR-Mab-14 IgM/J* (antibody, not shown: a dimerising Fc or GST; large carriers)
heavy: EVQLLESGGGLVKPGGSLRLSCAASGFRFSVYWMSWVRQAPGKGLEWVSGISGSGGTTYYADSVKGRFTISRDDSKNTLYLQMNSLKTEDTAVYYCARVRRDGYNYNFDYWGQGTLVTVSS
light: DIQMTQSPSSLSASVGDRVTITCQASQDISNYLNWYQQKPGKAPKLLIFDASSLEAGVPSRFSGSGSGTDFTLTISSLQPEDFATYYCQQANSFPPTFGQGTEVEIK
chain: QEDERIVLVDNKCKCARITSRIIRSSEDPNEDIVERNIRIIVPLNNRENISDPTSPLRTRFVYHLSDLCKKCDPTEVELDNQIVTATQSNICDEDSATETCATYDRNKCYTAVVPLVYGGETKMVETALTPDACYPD
- EC50 [5]: 0.34 µg/mL
- Max Fold activation [5]: 1.6 fold

B14: GITR-Mab-14 scFv (scFv, V domains shown)
VH: EVQLLESGGGLVKPGGSLRLSCAASGFRFSVYWMSWVRQAPGKGLEWVSGISGSGGTTYYADSVKGRFTISRDDSKNTLYLQMNSLKTEDTAVYYCARVRRDGYNYNFDYWGQGTLVTVSS
VL: DIQMTQSPSSLSASVGDRVTITCQASQDISNYLNWYQQKPGKAPKLLIFDASSLEAGVPSRFSGSGSGTDFTLTISSLQPEDFATYYCQQANSFPPTFGQGTEVEIK
notes: as for B1
- mGITR-His/BKG [1]: 0.9 fold over background
- hGITR-His/BKG [2]: 34 fold over background
- cGITR-His/BKG [3]: 11.5 fold over background
- Kd [4]: 30.3 nM

B15: GITR-Mab-9 scFv (scFv, V domains shown)
VH: QVQLVQSGAEVKKPGASVKVSCKASGHTFTSQYMHWVRQAPGQGLEWVGVINPNDGSTSYAQKFQGRVTMTRDTSTSTVYMELSSLRSEDTAVYYCARDGAYYYDSSGYYRSSNFDYWGQGTLVTVSS
VL: DIQMTQSPSSLSASVGDRVTITCQASQDIGNYLNWYQQKPGKAPKLLIYGASNLETGVPSRFSGSGSGTDFTLTISSLQPEDFATYYCQQGYSFPLTFGQGTKVEIK
notes: as for B1
- mGITR-His/BKG [1]: 1.1 fold over background
- hGITR-His/BKG [2]: 12.8 fold over background
- cGITR-His/BKG [3]: 11.6 fold over background
- Kd [4]: 3.3 nM

B16: GITR-Mab-11 scFv (scFv, V domains shown)
VH: QVQLVQSGAEVKKPGASVKVSCKASGGTFSNYGISWVRQAPGQGLEWMGIINPTDGSTTYAQKFQGRVTMTRDTSTSTVYMELSSLRSEDTAVYYCARWWGSGWSWYFDLWGRGTLVTVSS
VL: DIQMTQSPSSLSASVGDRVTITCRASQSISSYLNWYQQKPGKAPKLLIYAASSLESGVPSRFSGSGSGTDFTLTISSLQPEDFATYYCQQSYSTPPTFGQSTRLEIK
notes: as for B1
- mGITR-His/BKG [1]: 1.1 fold over background
- hGITR-His/BKG [2]: 21.8 fold over background
- cGITR-His/BKG [3]: 15.6 fold over background
- Kd [4]: 1.4 nM

B17: GITR-Mab-3 IgM/J* (antibody, not shown: a dimerising Fc or GST; large carriers)
heavy: QVQLVQSGAEVKKPGASVKVSCKASGYTFTSYDINWVRQAPGQGLEWMGWISGYNGNTNYAQKFQGRVTMTRDTSTSTVYMELSSLRSEDTAVYYCARSHEYYYYYGMDVWGQGTLVTVSS
light: EIVMTQSPATLSVSPGERATLSCRASQSVSSSYLAWYQQKPGQAPRLLIYGASTRATGIPARFSGSGSGTEFTLTISSLQSEDFAVYYCQQYYTTPFTFGPGTKVDIK
chain: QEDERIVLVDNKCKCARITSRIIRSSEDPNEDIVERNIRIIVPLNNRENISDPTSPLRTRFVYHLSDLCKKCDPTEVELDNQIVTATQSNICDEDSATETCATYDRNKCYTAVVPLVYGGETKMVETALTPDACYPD
- EC50 [5]: 5 µg/mL
- Max Fold activation [5]: 1.3 fold

From patent publication US20220106398A1 (IGM BIOSCIENCES, published 2022)
